The target of test [1] is α1Cx43 (connexin 43), full-length, membrane-integrated (UniProt P08050). In words: sucrose gradient velocity sedimentation.
Test [2] concerns the target β1Cx32 (connexin 32), full-length, membrane-integrated (UniProt P08033). In words: sucrose gradient velocity sedimentation.

In the case of “α1Cx43 (connexin 43), full-length, membrane-integrated (from UniProt P08050 1-382) (natural protein)”, in test [1], the stoichiometry N (commonly the number of molecules, sites or subunits per partner or assembly) was found to be 6. On to “β1Cx32 (connexin 32), full-length, membrane-integrated (from UniProt P08033 1-283) (natural protein)”, for which, in test [2], the stoichiometry N stood at 6.

Values taken from paper PMC7121760.
